The first test concerns the target human Mdm2 (1-125) (human). The experiment in a line: fluorescence polarisation.
Conditions: not given
In general terms: Fluorescence polarisation rises when a labelled molecule tumbles more slowly, as on binding a larger partner.
azide-ATSP-7041 (MP-081) (peptide) showed a Kd of 5 nM.

In the next test the target is human Mdm2 1-125 (human). Kind of test: fluorescence polarisation.
Sequence of human Mdm2 1-125 (human) (Q00987 1-125): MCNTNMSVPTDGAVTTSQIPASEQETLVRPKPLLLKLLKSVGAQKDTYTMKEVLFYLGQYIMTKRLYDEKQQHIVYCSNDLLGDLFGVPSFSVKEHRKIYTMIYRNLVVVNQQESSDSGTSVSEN
Conditions: not given
AZIDE-ATSP-7041 (A8 TO D-ALA) (peptide) showed a Kd of 65.4 nM. Regarding AZIDE-ATSP-7041 (S12A) (peptide), the Kd came out at 36.2 nM. On the same count and under the same terms, to “AZIDE-ATSP-7041 (W7 TO 6-FLURO-1-TRP) (peptide)” belongs 1 nM.

The target of a further test is human Mdm2 (1-125) (human). Kind of test: fluorescence polarisation; competitive fluorescence anisotropy: 250 nM Mdm2 (1-125) with 50 nM FAM-labeled 12/1 peptide, competing peptide titrated; apparent Kd from the fit with Kd1 = […]; PBS pH 7.4, 0.001% Tween-20; geometric means.
Sequence of human Mdm2 (1-125) (human) (Q00987 1-125): as above
Conditions: not given
Take “ALRN-6924 (Sulanemadlin, MP-4897) (peptide)”: the Kd amounted to 2.46 nM.

Another test has as its target human Mdm2 (1-125) (human). The test is described as above.
Conditions: not given
This is another data set of the same source.
“ALRN-6924 (Sulanemadlin, MP-4897) (peptide)”: the Kd was found to be 2.5 nM.

With azide-ATSP-7041 (E5P) (peptide), the Kd came to 7800 nM. In the case of “azide-ATSP-7041 (L1D, E5D, A8D) (MP-495) (peptide)”, the Kd came to 5 nM. Same read-out and setting: with “azide-ATSP-7041 (L1N, E5N, A8N, S12N, A13N, A14N) (MP-359) (peptide)” the figure was 15 nM. For “azide-ATSP-7041 with Cba10 substituted by Ala (peptide)”, the Kd turned out to be 115 nM. Consider “azide-ATSP-7041 with Cba10 substituted by Leu (peptide)”, for which the Kd was found to be 56 nM.

The target of the next test is human Mdm2 (1-125). Kind of test: fluorescence anisotropy competition assay (FAM-12/1 tracer). Conditions: tested in duplicate; parent MP-081 KD = 5 nM.
azide-ATSP-7041 (MP-081) A8E: the ratio to parent was < 2 x (within).

As to azide-ATSP-7041 (MP-081) A8W, the ratio to parent was < 2 x (within). For the substance “azide-ATSP-7041 (MP-081) A13a (a = D-alanine)”, the ratio to parent is < 2 x (within). Same read-out and setting: to azide-ATSP-7041 (MP-081) A14E belongs above 2 x stronger.

Take “azide-ATSP-7041 (MP-081) A14hR (hR = homo-arginine)”: the ratio to parent is < 2 x (within). For the substance azide-ATSP-7041 (MP-081) L1E, the ratio to parent is < 2 x (within). For azide-ATSP-7041 (MP-081) L1H, the ratio to parent was < 2 x (within). Still for that read-out and setting: to azide-ATSP-7041 (MP-081) Q9H belongs < 2 x (within).

Regarding azide-ATSP-7041 (MP-081) Q9K, the ratio to parent was < 2 x (within). Take azide-ATSP-7041 (MP-081) S12E: the ratio to parent is above 2 x stronger. Consider azide-ATSP-7041 (MP-081) S12H, for which the ratio to parent was < 2 x (within). In the case of “azide-ATSP-7041 (MP-081) S12a (a = D-alanine)”, the ratio to parent was < 2 x (within).

Turning to “azide-ATSP-7041 (MP-081) S12hR (hR = homo-arginine)”, the ratio to parent was < 2 x (within).

Turning to azide-ATSP-7041 (MP-081) T2K, the ratio to parent was < 2 x (within). Still for that read-out and setting: to “azide-ATSP-7041 (MP-081) T2hR (hR = homo-arginine)” belongs < 2 x (within). The same measure, in the same setting: to “azide-ATSP-7041 (MP-081) W7(6F-1-W) (6F-1-W = 6-Fluoro-1-Trp)” belongs above 2 x stronger. For the substance “azide-ATSP-7041 (MP-081) W7(DC-F) (DC-F = 3,4-Dichloro-Phe)”, the ratio to parent is < 2 x (within). For the substance “azide-ATSP-7041 (MP-081) W7(TFm-F) (TFm-F = trifluoromethyl-Phe)”, the ratio to parent is above 2 x stronger.

For another test, the target named is human Mdm2 1-125 (human). Kind of test: fluorescence polarisation; competitive fluorescence anisotropy: unlabelled peptide titrated against 250 nM Mdm2 (1-125) with 50 nM FAM-labelled 12/1 peptide (FAM-…-NH2); PBS pH 7.4, 0.001% Tween-20; apparent Kd, geometric means.
Conditions: not given
Take AZIDE-ATSP-7041 (A8W) (peptide): the Kd came to 8.5 nM.

As for AZIDE-ATSP-7041 (A14E) (peptide), the Kd came to 0.7 nM. Consider AZIDE-ATSP-7041 (CBA10 TO A) (peptide), for which the Kd came out at 115 nM. With AZIDE-ATSP-7041 (E5 TO D-ALA) (peptide), the Kd was 11.5 nM. Same read-out and setting: to AZIDE-ATSP-7041 (E5A) (peptide) belongs 47.7 nM; to AZIDE-ATSP-7041 (E5G) (peptide), 68.2 nM.

Turning to AZIDE-ATSP-7041 (E5P) (peptide), the Kd was 7840 nM. Regarding AZIDE-ATSP-7041 (E5W) (peptide), the Kd was 98.5 nM. For AZIDE-ATSP-7041 (L1 TO D-ALA) (peptide), the Kd stood at 8 nM. For the substance “AZIDE-ATSP-7041 (L1A, E5A, Q9A, S12A) (peptide)”, the Kd turned out to be 53.9 nM. Still for that read-out and setting: with “AZIDE-ATSP-7041 (L1D, E5D, A8D) (peptide)” the figure was 5.2 nM. With AZIDE-ATSP-7041 (L1G) (peptide), the Kd came to 9.5 nM. On the same count and under the same terms, to AZIDE-ATSP-7041 (L1P) (peptide) belongs 22.6 nM; to “AZIDE-ATSP-7041 (L1R, A8R, A13R) (peptide)”, 9.1 nM. “AZIDE-ATSP-7041 (L1R, Q9R, S12K) (peptide)”: the Kd came to 64.6 nM. Turning to “AZIDE-ATSP-7041 (L1R, Y6F, L9R) (peptide)”, the Kd was found to be 117 nM. For the substance AZIDE-ATSP-7041 (L1W) (peptide), the Kd was determined as 16.5 nM.

As for “AZIDE-ATSP-7041 (L1Y, E5Y, A8Y) (peptide)”, the Kd was found to be 371 nM. As to AZIDE-ATSP-7041 (Q9 TO D-ALA) (peptide), the Kd came to 18.5 nM. As for AZIDE-ATSP-7041 (Q9A) (peptide), the Kd was found to be 54.3 nM.

Consider AZIDE-ATSP-7041 (Q9G) (peptide), for which the Kd stood at 19.1 nM.

For the substance AZIDE-ATSP-7041 (Q9P) (peptide), the Kd stood at 45.8 nM. For the substance AZIDE-ATSP-7041 (Q9W) (peptide), the Kd was determined as 86 nM.

AZIDE-ATSP-7041 (S12E) (peptide): the Kd came out at 0.73 nM. For AZIDE-ATSP-7041 (S12G) (peptide), the Kd was determined as 12.4 nM. With AZIDE-ATSP-7041 (S12P) (peptide), the Kd stood at 50.1 nM. As for AZIDE-ATSP-7041 (S12W) (peptide), the Kd was 48 nM. Take AZIDE-ATSP-7041 (T2 TO D-ALA) (peptide): the Kd turned out to be 70.5 nM. AZIDE-ATSP-7041 (T2V) (peptide): the Kd was 71.5 nM.

On to AZIDE-ATSP-7041 (T2W) (peptide), for which the Kd is 204 nM.

Take “AZIDE-ATSP-7041 (W7 TO 3,4-DICHLORO-PHE) (peptide)”: the Kd amounted to 5.3 nM.

As for “AZIDE-ATSP-7041 (W7 TO TRIFLUOROMETHYL-PHE) (peptide)”, the Kd came to 1 nM. The same measure, in the same setting: to AZIDE-ATSP-7041 (Y6F) (peptide) belongs 3.3 nM; to AZIDE-ATSP-7041(A13E) (peptide), 14.2 nM.

As for AZIDE-ATSP-7041(W7A) (peptide), the Kd was determined as 4600 nM. NH2-EEE-AZIDE-SGS-PM2-EEE (peptide): the Kd stood at 2.4 nM.

Another test deals with human Mdm2 1-125 (human). The description is as above.
Conditions: not given
The source holds these as a separate data set.
With AZIDE-ATSP-7041 (E5A) (peptide), the Kd stood at 48.7 nM. With AZIDE-ATSP-7041 (E5A,Q9A) (peptide), the Kd came to 38 nM. Consider AZIDE-ATSP-7041 (E5A,S12A) (peptide), for which the Kd turned out to be 30.9 nM.

For the substance AZIDE-ATSP-7041 (E5L, A8L) (peptide), the Kd came to 36.2 nM. As to “AZIDE-ATSP-7041 (L1A, E5A, Q9A) (peptide)”, the Kd is 96 nM.

Take AZIDE-ATSP-7041 (L1A,E5A) (peptide): the Kd was found to be 41.7 nM. For AZIDE-ATSP-7041 (L1A,Q9A) (peptide), the Kd came out at 21.1 nM. Turning to AZIDE-ATSP-7041 (L1A,S12A) (peptide), the Kd is 16.1 nM. On to AZIDE-ATSP-7041 (L1A,T2A) (peptide), for which the Kd is 26.5 nM. On the same count and under the same terms, to AZIDE-ATSP-7041 (Q9A,S12A) (peptide) belongs 45.3 nM.

Turning to AZIDE-ATSP-7041 (T2A,E5A) (peptide), the Kd stood at 272 nM. Same read-out and setting: with AZIDE-ATSP-7041 (T2A,Q9A) (peptide) the figure was 79.5 nM. With AZIDE-ATSP-7041 (T2A,S12A) (peptide), the Kd came to 37.1 nM.

Consider “AZIDE-KK-ATSP-7041 (L1A,T2A,E5A,Q9A,S12A) (peptide)”, for which the Kd was found to be 156 nM.

The values above are taken from PMC10786919, “Design-rules for stapled peptides with in vivo activity and their application to Mdm2/X antagonists” (Nature Communications, 2024).
